Drawing on article doi:10.1101/2025.06.28.661730, this text covers Ca2+ flux of PGT121-expressing Ramos B cells, AUC for one substance.

The assay has as its target complement receptor 2 (CR2, CD21) on human follicular dendritic cells (human (endogenous in tonsil FDCs)) (UniProt P20023).

Chain of complement receptor 2 (CR2, CD21) on human follicular dendritic cells (human (endogenous in tonsil FDCs)) (P20023 21-1033): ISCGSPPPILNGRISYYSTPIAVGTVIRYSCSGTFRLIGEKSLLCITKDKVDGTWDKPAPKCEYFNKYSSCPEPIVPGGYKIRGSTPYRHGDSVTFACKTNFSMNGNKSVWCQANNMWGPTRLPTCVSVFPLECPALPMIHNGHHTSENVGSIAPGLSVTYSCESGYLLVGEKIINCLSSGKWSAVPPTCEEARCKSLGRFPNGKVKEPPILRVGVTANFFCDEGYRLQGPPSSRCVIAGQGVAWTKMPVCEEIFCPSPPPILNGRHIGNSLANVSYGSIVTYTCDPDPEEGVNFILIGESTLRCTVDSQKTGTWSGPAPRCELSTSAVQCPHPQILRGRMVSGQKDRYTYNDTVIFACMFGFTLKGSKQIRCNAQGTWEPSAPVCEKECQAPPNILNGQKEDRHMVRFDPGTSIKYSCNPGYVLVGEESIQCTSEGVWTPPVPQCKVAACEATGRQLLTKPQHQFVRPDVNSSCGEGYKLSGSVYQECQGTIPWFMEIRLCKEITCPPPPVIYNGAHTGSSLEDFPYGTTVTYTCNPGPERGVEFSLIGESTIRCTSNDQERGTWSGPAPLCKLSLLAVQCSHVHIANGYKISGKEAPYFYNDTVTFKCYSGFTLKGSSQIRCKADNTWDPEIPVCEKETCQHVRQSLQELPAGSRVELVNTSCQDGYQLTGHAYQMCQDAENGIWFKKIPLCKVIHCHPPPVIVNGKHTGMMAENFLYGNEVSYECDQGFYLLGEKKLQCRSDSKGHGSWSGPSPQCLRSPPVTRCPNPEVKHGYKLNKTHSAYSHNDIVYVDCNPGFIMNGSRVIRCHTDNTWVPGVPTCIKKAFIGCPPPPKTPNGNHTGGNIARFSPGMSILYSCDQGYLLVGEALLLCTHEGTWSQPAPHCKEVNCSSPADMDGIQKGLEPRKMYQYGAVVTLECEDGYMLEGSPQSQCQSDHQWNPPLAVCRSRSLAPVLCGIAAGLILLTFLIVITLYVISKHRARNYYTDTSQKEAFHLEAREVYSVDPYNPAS

Consider “ConM SOSIP.v7 Env trimer fused to human complement fragment C3d (from UniProt P01024 1002-1303)”, for which the Ca2+ flux of PGT121-expressing Ramos B cells, AUC at 0.01 µg/ml Env-equivalent (tested at 10, 1, 0.1, 0.01 and 0.001 µg/ml); ConM Env alone gave AUC 5 stood at 442 AUC.
